B1: Subtilisin inhibitor, P01006 (parent)
chain: MRNTGAGPSPSVSRPPPSAAPLSGAALAAPGDAPSALYAPSALVLTVGKGVSATTAAPERAVTLTCAPGPSGTHPAAGSACADLAAVGGDLNALTRGEDVMCPMVYDPVLLTVDGVWQGKRVSYERVFSNECEMNAHGSSVFAF

Variants of: B1
Conditions: Streptomyces albogriseolus, Thermal, DSC, reversible: yes, structure 3SSI, whole UniProt chain shown; for ddG of mutation (higher = less stable) / unfolding free energy: 82.21 °C

V44L
Tm (pH 7, phosphate 25 mM): 77.7 °C | change of melting temperature, mutant - wild type (higher = more stable) (pH 7, phosphate 25 mM): -4.5 °C | unfolding enthalpy (calorimetric) (pH 7, phosphate 25 mM): 175 kcal/mol | ddG of mutation (higher = less stable) (pH 9.5, glycine 25 mM): 2.52 kcal/mol | unfolding free energy (pH 9.5, glycine 25 mM): 3.52 kcal/mol | Tm (pH 9.5, glycine 25 mM): 75.4 °C | change of melting temperature, mutant - wild type (higher = more stable) (pH 9.5, glycine 25 mM): -5.3 °C | unfolding enthalpy (calorimetric) (pH 9.5, glycine 25 mM): 170 kcal/mol

V44I
ddG of mutation (higher = less stable) (pH 7, phosphate 25 mM): 0.84 kcal/mol | unfolding free energy (pH 7, phosphate 25 mM): 5.19 kcal/mol | Tm (pH 7, phosphate 25 mM): 79.8 °C | change of melting temperature, mutant - wild type (higher = more stable) (pH 7, phosphate 25 mM): -2.4 °C | unfolding enthalpy (calorimetric) (pH 7, phosphate 25 mM): 182 kcal/mol | ddG of mutation (higher = less stable) (pH 9.5, glycine 25 mM): 0.94 kcal/mol | unfolding free energy (pH 9.5, glycine 25 mM): 5.1 kcal/mol | Tm (pH 9.5, glycine 25 mM): 78.9 °C | change of melting temperature, mutant - wild type (higher = more stable) (pH 9.5, glycine 25 mM): -1.83 °C | unfolding enthalpy (calorimetric) (pH 9.5, glycine 25 mM): 178 kcal/mol

V44A
Tm (pH 9.5, glycine 25 mM): 67 °C | change of melting temperature, mutant - wild type (higher = more stable) (pH 9.5, glycine 25 mM): -13.7 °C | unfolding enthalpy (calorimetric) (pH 9.5, glycine 25 mM): 190 kcal/mol

V44M
ddG of mutation (higher = less stable) (pH 7, phosphate 25 mM): 5.92 kcal/mol | unfolding free energy (pH 7, phosphate 25 mM): 0.11 kcal/mol | Tm (pH 7, phosphate 25 mM): 69.6 °C | change of melting temperature, mutant - wild type (higher = more stable) (pH 7, phosphate 25 mM): -12.6 °C | unfolding enthalpy (calorimetric) (pH 7, phosphate 25 mM): 181 kcal/mol | ddG of mutation (higher = less stable) (pH 9.5, glycine 25 mM): 5.43 kcal/mol | unfolding free energy (pH 9.5, glycine 25 mM): 0.61 kcal/mol | Tm (pH 9.5, glycine 25 mM): 69 °C | change of melting temperature, mutant - wild type (higher = more stable) (pH 9.5, glycine 25 mM): -11.7 °C | unfolding enthalpy (calorimetric) (pH 9.5, glycine 25 mM): 176 kcal/mol

V44F
ddG of mutation (higher = less stable) (pH 7, phosphate 25 mM): 5.69 kcal/mol | unfolding free energy (pH 7, phosphate 25 mM): 0.34 kcal/mol | Tm (pH 7, phosphate 25 mM): 69.1 °C | change of melting temperature, mutant - wild type (higher = more stable) (pH 7, phosphate 25 mM): -13.5 °C | unfolding enthalpy (calorimetric) (pH 7, phosphate 25 mM): 168 kcal/mol | ddG of mutation (higher = less stable) (pH 9.5, glycine 25 mM): 5.33 kcal/mol | unfolding free energy (pH 9.5, glycine 25 mM): 0.71 kcal/mol | Tm (pH 9.5, glycine 25 mM): 68.3 °C | change of melting temperature, mutant - wild type (higher = more stable) (pH 9.5, glycine 25 mM): -12.4 °C | unfolding enthalpy (calorimetric) (pH 9.5, glycine 25 mM): 164 kcal/mol

V44G
Tm (pH 7, phosphate 25 mM): 54.5 °C | change of melting temperature, mutant - wild type (higher = more stable) (pH 7, phosphate 25 mM): -27.7 °C | unfolding enthalpy (calorimetric) (pH 7, phosphate 25 mM): 162 kcal/mol | Tm (pH 9.5, glycine 25 mM): 55.3 °C | change of melting temperature, mutant - wild type (higher = more stable) (pH 9.5, glycine 25 mM): -25.4 °C | unfolding enthalpy (calorimetric) (pH 9.5, glycine 25 mM): 158 kcal/mol

From FireProtDB (doi:10.1006/jmbi.1995.0324)
